The record followed here is article PMC10784492, “De novo biosynthesis of antiarrhythmic alkaloid ajmaline” (Nature Communications, 2024).

For one series, the target named is T1, RsNNMT (Rauvolfia serpentina, UniProt A0A075D6M1).
T1 construct: gene NNMT; N-terminal His tag, purified from E. coli
The series is described as follows: LC-MS/MS detection of ajmaline in coupled reaction. The series is classed as biochemical. Conditions: 100 μM SAM, 20 mM Tris-HCl pH 7.5, 30 °C; norajmaline formed in situ by RsAAE1/2.

Substrate in series [1]: C/C=C1/[C@@H](O)N2[C@H]3C[C@@]45c6ccccc6N[C@H]4[C@@H]2C[C@@H]1C3[C@H]5OC(C)=O
The series is described as follows: LC-MS/MS product quantification, Michaelis-Menten fit. Conditions: 1 mM NADPH, 20 mM Tris-HCl pH 7.5, 30 °C, 2 min, 19,20-reduction. In kind it is biochemical, Rauvolfia serpentina. An excerpt: LC-MS/MS product quantification, Michaelis-Menten fit on tDHVR (RsRR4, N-terminal truncated; tRR4)

T1 sequence (A0A075D6M1 whole entry): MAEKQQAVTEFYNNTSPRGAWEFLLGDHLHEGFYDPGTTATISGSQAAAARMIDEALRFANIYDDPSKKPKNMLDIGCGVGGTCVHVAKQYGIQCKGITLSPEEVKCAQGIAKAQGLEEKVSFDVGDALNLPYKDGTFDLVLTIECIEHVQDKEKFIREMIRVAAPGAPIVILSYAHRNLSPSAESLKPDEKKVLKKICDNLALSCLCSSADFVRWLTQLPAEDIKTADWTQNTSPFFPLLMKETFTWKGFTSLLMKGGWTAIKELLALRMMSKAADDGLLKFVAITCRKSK

With `CC[C@H]1[C@@H]2C[C@H]3[C@@H]4Nc5ccccc5[C@]45C[C@@H]([C@H]2[C@H]5O)N3[C@@H]1O` [norajmaline], at RsNNMT, the “LC-MS/MS detection of ajmaline in coupled reaction” value was “ajmaline, also confirmed with an authentic standard, was produced at the expense of norajmaline”.

B1: tDHVR (RsRR4, N-terminal truncated; tRR4) (Rauvolfia serpentina) (protein)
chain: MAGKSPEEQHPVKAYGWAATDSSGILSPFKFSRRATGDHDVRVKILYAGVCHSDLQSARNDMGCFTYPLVPGFETVGTATEVGSKVTKVKVGDKVAVGIMVGSCGKCDECVNDRECYCPEVITSYGRIDHDGTPTYGGFSSETVANEKFVFCFPEKLPMAAGAPLLNAGVSVYSAMRFYGLDKPGMHLGVVGLGGLGHLAVKFAKAFGVKVTVISTSTSKKGEAINDLGADAFLVSTDAEQMQAGSGTLDGILDTVPVVHPIEALLGLLKNHTKLVLVGATMGSFELPILPLGVGRKSVVSTIGGSTKETQEMLDFAAEHDITASVEIIPMDYVNTAMERIEKGDVRYRFVIDIGNTLTPPES
notes: N-terminally truncated 363-residue version of the 413-residue full protein (extra N-terminal 50 removed); his-tagged in pET30b(+), E. coli, Ni-NTA; OQ591882 is printed for both DHVR and RsAAE1
Regarding B1, in series [1], the Km worked out at 32.0 µM and the turnover number (kcat) worked out at 10.4 s⁻¹.

The Km is the concentration of substrate that gives half-maximal velocity. What is called kcat is the maximal rate divided by the concentration of active sites.
